Assay: soluble on expression in E. coli; label from the status in PepcDB or PDB records
With “MSGKRALITGIRGQDGAYLAKLLLEKGYEVYGADRRSGEFASWRLKELGIENDVKIIHMDLLEFSNIIRTIEKVQPDEVYNLAAQSFVGVSFEQPILTAEVDAIGVLRILEALRTVKPDTKFYQASTSEMFGKVQEIPQTEKTPFYPRSPYAVAKLFGHWITVNYREAYNMFACSGILFNHESPLRGIEFVTRKITYSLARIKYGLQDKLVLGNLNAKRDWGYAPEYVEAMWLMMQQPEPDDYVIATGETHTVREFVEKAAKIAGFDIEWVGEGINEKGIDRNTGKVIVEVSEEFFRPAEVDILVGNPEKAMKKLGWKPRTTFDELVEIMMEADLKRVRDREVSV” the “soluble on expression in E. coli” value was “soluble”. For “MSGLRVYSTSVTGSREIKSQQSEVTRILDGKRIQYQLVDISQDNALRDEMRTLAGNPKATPPQIVNGNHYCGDYELFVEAVEQDTLQEFLKLA”, the “soluble on expression in E. coli” value was “soluble”. In the case of “MSGNSGASPQDMVKKLVYLSCTLNQKCGQRTGPHREPEPFLGFSVRDRSGLEGAIASVFQSSFDVLLYPTIYDQAAALLFKLANGHYFQDGNKRTAFHLCLAYLRANNVHVSPPRSDDVITLLQTTVSRSGSQENGIAFVRQKLLDWTVD”, the “soluble on expression in E. coli” value is reported as “not soluble”. For “MSGRKFSFEVTKTSSAPAATLFRLVTDGGNWATWAKPIVAQSSWARRGDPAPGGIGAIRKLGMWPVFVQEETVEYEQDRRHVYKLVGARTPVQDYFGEVVLTPNASGGTDLRWSGSFTEKVRGTGPVMRAALGGAVRFFAGQLVKAAEREAVRR”, the “soluble on expression in E. coli” value was “soluble”. With “MSGSMLQLIDLCKGYVDGDEFHPVLQGAELTLNQGDQLALMGESGSGKSTLLNLIAGLDSADSGEIWFPGFPMHHTSEHHRTAFRRDNIGQIFQQYNLLPTLNIADNIRFCRQLKGLPEDAGLWRQILSALDLMPLLGRYPEEVSGGQQQRAAIARALYMEPKILLADEPTGSLDERNAEAVMRLLTTLTRQLNCALLLVTHSEKVAQHMDGCIRLQGGQLHVMARS” the “soluble on expression in E. coli” value was “not soluble”. For “MSGSSEIMSMHDQIVRFSASSSAPEDTTTNSLMAEKEASLVVRLEQELTQAQICNHRLNQQLKVLANSSDKAIKIELANAKVRF”, the “soluble on expression in E. coli” value was “not soluble”. In the case of “MSGTRKKALLKVIILGDSGVGKTSLMNQYVNRRFSNQYKATIGADFLTRDVNIDDRTVTLQIWDTAGQERFQSLGVAFYRGADCCVLAFDVTNAASFKSLDSWRDEFLIQASPRDPDHFPFVLLGNKVDLESQRAVSSKRAQSWCQTKGNIPYYEVSAKEALNVEAAFLAIARDALARESQETNDFPEFPDQIRLNPNQQNQQNSGCNC”, the “soluble on expression in E. coli” value is reported as “not soluble”. For “MSGVRAVRISIESACEKQVHGVGLDGTETYLPPLSMSQNLARLAQRIDFSQGSGSEEGEAAGTEGDAQDWPGAGSSADQDDEEGVVKFQPSLWPWDSVRNNLRSALTEMCVLYDVLSIVRDKKFMTLDPVSQDALPPKQVFVDFNLEHHHHHH”, the “soluble on expression in E. coli” value was “not soluble”. With “MSHHHHHHSMSKNILDMRNTVQIGIVVRDIEESLQNYAEFFGVEKPQWFWTDDYSKAHTKFNGRPTKARAKLAFFELGPLQLELIEPDENPSTWREFLDKNGEGIHHIAFVVKDMDRKVEELYRKGMKVIQKGDFEGGRYAYIDTLRALKVMIELLENY” the “soluble on expression in E. coli” value was “soluble”. For “MSIEVIAVRLTKGMDLKLSLAKLVAEHDIKAGSIASCVGCISDLNLRLAGAESTLTKREPFEIVSVMGTLTPEHQHVHISVSDREGRVWGGHLLEGTVIDTTAELIIHSYSELEFTRAMDDSTGYTELQVNPSKLEHHHHHH”, the “soluble on expression in E. coli” value was “not soluble”. In the case of “MSILVIGANGGVGSKLVSQLNEEHVDFTAGVRKEDQVKELENKGIKATLIDVEKNSINDLKNIFTDYDKVIFSVGSGGSTGADKTIIVDLDGAVKTIKASKEAGIKHYVMVSTYDSRREAFDASGDLKPYTIAKHYADDYLRTSDLNYTIVHPGSLTDDAGTGKIEADLYFDKAGSIPREDVATVLKEVVTSDGFNNQEFQILSGNHGVKDALKNYESLEHHHHHH”, the “soluble on expression in E. coli” value is reported as “soluble”. For “MSININRQNMHKMLQYKRRCIMYINTGYLNHSHKDFKDKSRPLIVGSCGTYRLSQHPKMPTYRPRGRLDYQIIYISSGLVHFHFDNPENETIIPAGHIVLFRPKELQKYEFYGKDKTQIYWLHFTGSDVKNTLRKYGFTDNKRVFNVGTSLEYEQVFKRIITELQRCQDNYEEMLMLLLRHLLIIFNRKITTEHVIRNEFLDSQMDTAITYFNTNYNRSINVEEYASSIGMSISWFIRSFRKYTGNTPVQFLTALRMTNAQVLLETTSYSINEIAGIVGYNNPLYFSRLFHKQKGCSPSEYRARNT”, the “soluble on expression in E. coli” value was “not soluble”. In the case of “MSKDFIINEQIRAREVRLIDQNGDQLGIKSKQEALEIAARRNLDLVLVAPNAKPPVCRIMDYGKFRFEQQKKEKEARK”, the “soluble on expression in E. coli” value is reported as “soluble”.

Reference: the DeepSol protein solubility set
